Tests used:
[1] = biological target: DR2539 full length (Deinococcus radiodurans); assay: SEC
[2] = biological target: DR2539 full length (Deinococcus radiodurans); assay: SAXS
[3] = biological target: truncated DR2539 (DR2539tr, residues 4-142) (Deinococcus radiodurans); assay: SAXS
DR2539 full length = biological target: T1, DR2539 full length (Deinococcus radiodurans, UniProt Q9RRF3 1-232); assay: EMSA
T1 sequence: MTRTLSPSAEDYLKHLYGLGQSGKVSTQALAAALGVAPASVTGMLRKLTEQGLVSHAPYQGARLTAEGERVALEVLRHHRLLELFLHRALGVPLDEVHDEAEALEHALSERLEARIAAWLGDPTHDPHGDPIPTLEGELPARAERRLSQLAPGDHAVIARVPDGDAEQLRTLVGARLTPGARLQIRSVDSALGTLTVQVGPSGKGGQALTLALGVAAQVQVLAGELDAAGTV

DR2539 full length (natural protein)
stoichiometry N [1]: 2
stoichiometry N [2]: 2

truncated DR2539 (DR2539tr, residues 4-142) (domain or fragment)
stoichiometry N [3]: 2

B1: dr1709p_wt (dsDNA)
DNA 1: ATTTTAGTCGCGCCTAAAATA
DNA 2: TATTTTAGGCGCGACTAAAAT
binding result (DR2539 full length): binds
